# Results as given in the nanobody polyreactivity screen of Harvey et al. (2022).
# Experiment: yeast display, Sf9 membrane polyspecificity reagent, FACS + sequencing; frameworks hold sequencing errors
# Procedure, shortened: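 Polyreactivity labels are assigned by the sorting gate from which each nanobody was recovered. The gates were low and high (top ~1%), set on anti-HA fluorescence for expression and streptavidin fluorescence for reagent binding. Before sorting, galactose-induced (36–48 hours) yeast display cells were stained for 1 hour at 4 °C with 10% biotinylated, detergent-solubilized Sf9 membrane reagent.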
row,Sequence,polyreactivity (PSR sort gate)
1,QVQLVESGGGLVQAGGSLRLSCAASGFTFYRYTMGWYRQAPGKERELVASITRRGGSTYYADSVKGRFTISRDNAKNTVYLQMNSLKPEDTAVYYCNAATPVWQSGTYEYWGQGTQVTVSS,high polyreactivity
2,QVQLVESGGGLVQAGGSLRLSCAASGFTFYSNAMGWYRQAPGKERELVAAINWGGGSTYYADSVKGRFTISRDNAKNTVYLQMNSLKPEDTAVYYCAAEPIWEYWNGVSYAYDYWGQGTQVTVSS,low polyreactivity
3,QVQLVESGGGLVQAGGSLRLSCAASGFTFYSNAMGWYRQAPGKERELVAAISYSGGSTYYADSVKGRFTISRDNAKNTVYLQMNSLKPEDTAVYYCAAGGLQQGDYWGQGTQVTVSS,low polyreactivity
4,QVQLVESGGGLVQAGGSLRLSCAASGFTFYSNAMGWYRQAPGKEREMVATITASGGSTYYADSVKGRFTNSRDNAKYTVYVQMYSLKPEDTAVYYCAKDLYWYYRRRGQYVYWGQGTQVTVSS,high polyreactivity
5,QVQLVESGGGLVQAGGSLRLSCAASGFTFYSYAMGWNRQAPGKERELVAAISGGGGSTYYADSVKGRFTISRDNAKNTVYLQMNSLKPEDTAVYYCAKRPAYRGYGLGYYWGQGTQVTVSS,high polyreactivity
6,QVQLVESGGGLVQAGGSLRLSCAASGFTFYSYAMGWYRQAPGKERELVAAISRSGGRTYYADSVKGRFTISRDNAKNTVYLQMNSLKPEDTAVYYCAAEAYGPYSYSYSPYGYYYWGQGTQVTVSS,high polyreactivity
7,QVQLVESGGGLVQAGGSLRLSCAASGFTFYSYAMGWYRQAPGKERELVAAISWSGTRTYYADSVKGRFTISRDNAKNTVYLQMNSLKPVDTAVYDCAADTRRWARGYDYWGQGTQVTVSS,high polyreactivity
8,QVQLVESGGGLVQAGGSLRLSCAASGFTFYSYAMGWYRQEPGKEREFVAAITSRGGSTYYADSVKGRFTISRDNAKNTVYLQMNSLKPEDNAVYYCAAYAGYSDQARYYYWGQGTQVTVSS,high polyreactivity
9,QVQLVESGGGLVQAGGSLRLSCAASGFTFYSYTMGWYRQAPGKERELVAAISGRSVRTYYADSVKGRFTISRDNAKNTVYLQMNSLKPEDTAVYYCARAYYWRTSWYNYWGQGTQVTVSS,high polyreactivity
10,QVQLVESGGGLVQAGGSLRLSCAASGFTFYTNAMGWYRQAPGKEREFVAAISFSGGTYYADSVKGRFTISRDNAKNTVYLQMNSLKPEDTAVYYCNARYPRYYRGVIQYDYWGQGTQVTVSS,low polyreactivity
11,QVQLVESGGGLVQAGGSLRLSCAASGFTFYTNTMGWYRQAPGKERELVAAISSGGSTYYADSVKGRFTISLDNAKNTVYLKMNSLKPEVTAVYYCAVYGPWAYYPMGYWGQGTQVTVSS,low polyreactivity
12,QVQLVESGGGLVQAGGSLRLSCAASGFTFYTYAMGWYRHAPGKERELVAAITSSGGSTYYADSVKGRFTISRDNAKNSVYLQMNSLKPEDTAVYYCKAVSYYLGDDYWGQGTQVNVSS,high polyreactivity
13,QVQLVESGGGLVQAGGSLRLSCAASGFTFYTYAMGWYRPAPGKERELVATITIGDGSTYYADSVKGRFTISRDNAKNTVYLQMNSLKPEDTAVYYCNRDSVGYDYWGQGSQVTVSS,low polyreactivity
14,QVQLVESGGGLVQAGGSLRLSCAASGFTFYTYVMGWYRQAPGKERELVAAISGRGGSTYYADSVKGRFTISRDNAKNTVYLQMNSLKPEDTAVYYCATVRSYSRVVGYDYWGQGTQVTVSS,high polyreactivity
15,QVQLVESGGGLVQAGGSLRLSCAASGFTFYVNVMGWYRQPPGKEREFVAAIRTRGASTYYADSVKGRFTISRDNAKNTVYLQMNSLKPEDTADYYCAAGWFWNYWYGVSMDYWGQGTQVTVSS,high polyreactivity
16,QVQLVESGGGLVQAGGSLRLSCAASGFTFYVYAMGWYRQAPGKERELVAAISKSGGSTYYADSVKGRFTISRDNAKNTVYLQMNSLKPEDTAVYYCAVYDKRSGYRGGHRYNSWGQGTQVTVSS,high polyreactivity
17,QVQLVESGGGLVQAGGSLRLSCAASGFTFYWYAMGWYRQAPGKERELVAAITRSGSSTYYADSVKGRFTISRDNAKNTVYLQMNSLKPEDTAVYYCAKAYRPPGYDSWGQGTQVTVSS,high polyreactivity
18,QVQLVESGGGLVQAGGSLRLSCAASGFTFYYNAMGWYRQAPGKERELGASITRSGGRTYYADSVKGRFTISRDYAKNTVYLQMNSLKPEDTAVYYCARRYPGGYYWGQGTHVTVSS,high polyreactivity
19,QVQLVESGGGLVQAGGSLRLSCAASGFTFYYYALGWYRQAPGKERELVAAISTRDGNTYYADSVKGRFTISRDNAKNTVYLQMNSLKPEDTAVYYCAADSYSGYNYWGQGTQVTVSS,low polyreactivity
20,QVQLVESGGGLVQAGGSLRLSCAASGFTFYYYAMGWYRQAPGKERELVAAITSSGGRTYYADSVKGRFTISRDNAKNTVYLQMNSLKPEDTAVYYCAATGFYHRGEYYYWGQGTQVTVSS,low polyreactivity
21,QVQLVESGGGLVQAGGSLRLSCAASGFTFYYYAMGWYRQAPGKERELVAAITWSGDSTNYADSVKGRFTISRDNAKNSVYLQMNSLKPEDTAVYYCATESYDSYGLYDYWGQGTQVTVSS,low polyreactivity
22,QVQLVESGGGLVQAGGSLRLSCAASGFTFYYYAMGWYRQAPGKERELVAGINSDGNTYYADSVKGRFTISRDNAKNTVYLQMNSLKPEDTAVYYCAARKLWPKNFVRHDYWGQGTQVTVSS,low polyreactivity

row,Sequence,polyreactivity (PSR sort gate)
1,QVQLVESGGGLVQAGGSLRLSCAASGFTFYYYAMGWYRQAPGKERELVARITSGGSTYYADSVKGRFTISRDNAMYTVYLQMNCLKPEDTAVYYCNVDVSVEVAYWGQGTQVTVSS,low polyreactivity
2,QVQLVESGGGLVQAGGSLRLSCAASGFTFYYYAMGWYRQAPGKERELVAVITSGGNTYYADSVKGRFTISRDNAKNNVYLQMNSLKPEDTAVYYCAKDVSDPFYDPFEYWGQGTQVTVSS,low polyreactivity
3,QVQLVESGGGLVQAGGSLRLSCAASGFTFYYYAMGWYRQAPGTEMELVAALSRSGVRTYYADSVNGRFTISRDNGKNTVYLQMTSLKPEDTAVYYCAAEFARSRMNYWGQGTKVTVSS,high polyreactivity
4,QVQLVESGGGLVQAGGSLRLSCAASGFTHDWYAMGWYRQAPGKERELVAAIWSAGTTYYADSVKGRFTISRDNAMNTVYLQMNSLKPEDPAVYYCATVSDYDFGLYDYWGQGTQVTVSS,low polyreactivity
5,QVQLVESGGGLVQAGGSLRLSCAASGFTIAYYAMGWYRQAPGKERELVAAITTSGSTYYADSVKGRFTISRDNAQNTVYLQMNSLKPEDTAVYYCAVSIWGWFASGFDYWGQGTQVTVSS,high polyreactivity
6,QVQLVESGGGLVQAGGSLRLSCAASGFTIDAYAMGWYRQAPGKDRELVAAISGSGGSTYYADSVKGRFTISRDNAKNTVYLQMNSLKPEDTALYYCAKDPGPYDYDYWGQGTQVTVSS,low polyreactivity
7,QVQLVESGGGLVQAGGSLRLSCAASGFTIDLYAMGWYRQAPGKERELVAAISIRGGSTYYADSVKGRFTISRDNAKNTVYLQMNSLKPEDTAVYYCATVTSRRSYIAYRGTGDYDYWGQGTQVTVSS,low polyreactivity
8,QVQLVESGGGLVQAGGSLRLSCAASGFTIFYYAMGWYRQAPGKERELVASISWSGGSTYYADSVMGRFTISRENAKNSVYLQMNSLKPEDTAVYYCAADVPFGGDYWGQGTQVTVSS,low polyreactivity
9,QVQLVESGGGLVQAGGSLRLSCAASGFTISRYAMGWYRQAPGKERELVAAITWSGVSTYYADSVKGRFTISRDNAKNTVYLQMNSRKPEDTAVYYCAATTYSSSSSHDYWGQGTQVTVSS,low polyreactivity
10,QVQLVESGGGLVQAGGSLRLSCAASGFTISVYAMGWYRQAPGKERELVAAISWNGGRTYYAVSVKGRFTISRDNAKNTVYLQMNSLKPEDSAVYYCNKVSGYDVDYWGQGTQVTVSS,high polyreactivity
11,QVQLVESGGGLVQAGGSLRLSCAASGFTITQYGMGWYRQAPGKERELVADITYSGGDTYYADSVKGRFTISRDNAKNTVYLQMNSLKPEDTAVYFCAAYSWKYCFVWGYVYWGQGTQVTVSS,high polyreactivity
12,QVQLVESGGGLVQAGGSLRLSCAASGFTIVTYAMGWYRQAPGKERELVAAISKSGGTTYYADSVKGRFTISRDNAKNTVYLQMNSLKPEDTAVYYCNKRWYIARPVDRYRYYYWGQGTQVTVSS,high polyreactivity
13,QVQLVESGGGLVQAGGSLRLSCAASGFTIVYYAMGWYRQAPGKERELVAAITWSGGNTYYADSVKWRITISRDNAKNTVYLHMNSLKPEDNAVYYCAASPRGRRTTVGYPRRPFDYWGLGTQVTVSS,high polyreactivity
14,QVQLVESGGGLVQAGGSLRLSCAASGFTIWAYTMGCYRQAPGKEREFVADITSRGGSTFYADSVKGRFTISRDNAKNTVYLQMNSLKPEDTAVDYCAAEGFDTRMYYWGQGTQVTVSS,high polyreactivity
15,QVQLVESGGGLVQAGGSLRLSCAASGFTIWDYAMGWYRQAPGKERELVAAISWSGGSTYYADSVKGRFTISRDNAKNTVYLQMNSLKPEDTAVYYCNAVHYSHHGYDYWGQGTQVTVSS,low polyreactivity
16,QVQLVESGGGLVQAGGSLRLSCAASGFTIWRYAMGWYRQAPGKERELVAAISWRGGSTYYADSVKGRFTISRDNAKNTVYLQMNSLKPEDTAVYYCAAAYNLPPGYDYWGLGTQVTVSS,high polyreactivity
17,QVQLVESGGGLVQAGGSLRLSCAASGFTIWWYAMGWSRRAPGKERELVATITSGGRTNYAYSVKGRFTISRDNAKNTVYLQMTSLKPEDTAVYYCATRQLSKVKDMDYWGQGTQVTVSS,high polyreactivity
18,QVQLVESGGGLVQAGGSLRLSCAASGFTIYRYAMGWYRQAPGKERELVATIRRGGSTKYADSVKGRFTISRDNAKNTVYLQMNSLKPEDTAVYYCNARYYAAPDKYYYWGQGTQVTVSS,low polyreactivity
19,QVQLVESGGGLVQAGGSLRLSCAASGFTIYYYTMGWYRQAHGKERELVAAITWRGGSTNYADSVKGRFTISRDNAKNTVYLQMNSLKPEDTAVYYCAAVTYWFWPGMDYWGQGTQVTVSS,low polyreactivity
20,QVQLVESGGGLVQAGGSLRLSCAASGFTLAGYDMGWSRQAPGKERELVATLSTYADSVKGRFTISRDNAKNTVYLQMNSLKPEDTAVYYCAKKYVWTHNYWGQGTQVTVSS,low polyreactivity
21,QVQLVESGGGLVQAGGSLRLSCAASGFTLARYAMGWYRQAPGKERELVAAITKRGGSTYYADSVKGRFTISRDNAKNTVYLQMNSLKPEDTAVYYCATYKRSSHYDYWGQGTQVTVSS,high polyreactivity
